The record followed here is US20020115631A1 (IDUN PHARMACEUTICALS, published 2002).

For assay [1], the target named is T1, full length human Bad expressed as a fusion protein with the DNA-binding protein LexA (bait, vector pEGE202) (human, UniProt P0A7C2 1-202 (Escherichia coli entry)).
T1 construct: Expressed in yeast EGY191 for the two-hybrid assay; also called Bad-bait; LexA-Bad
T1 sequence: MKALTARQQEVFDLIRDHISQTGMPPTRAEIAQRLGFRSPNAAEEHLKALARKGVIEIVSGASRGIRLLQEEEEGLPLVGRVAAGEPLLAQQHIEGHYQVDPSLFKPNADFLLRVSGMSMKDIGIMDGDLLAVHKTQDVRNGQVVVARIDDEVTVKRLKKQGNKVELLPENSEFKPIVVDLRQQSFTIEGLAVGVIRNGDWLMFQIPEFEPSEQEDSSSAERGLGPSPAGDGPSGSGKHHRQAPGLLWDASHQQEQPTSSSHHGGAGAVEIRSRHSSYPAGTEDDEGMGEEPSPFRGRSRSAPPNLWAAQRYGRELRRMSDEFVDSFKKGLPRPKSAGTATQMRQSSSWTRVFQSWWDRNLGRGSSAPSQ
The assay is described as follows: yeast two-hybrid, beta-galactosidase reporter (LexA-Bad bait, B42 prey). An excerpt:
Briefly, the full length human Bad sequence was subcloned into the yeast 2-hybrid vector pEGE202, or “bait-vector” to express Bad as a fusion protein wish the DNA-binding protein LexA (Ruden et al., Nature (1991) 350:426-430). Human Bcl-2, Bcl-X, Bax, Bak and Bad were similarly cloned into the yeast 2-hybrid vector pJG4-5, or “prey-vector” to expressed these Bcl-2 family members as fusion proteins with the transcriptional activator B42 (Gyuris et al., Cell (1993) 75:791-803). Briefly, the full length human Bad sequence was amplified by PCR and subcloned into the bait-vector. For the PCR reaction we used the following primers: 5′ATCAGTGAATTCACTATGTTCCAGATCCCA GAC3′ (SEQ ID NO: 4) and 5′ ATCGATCTCGAGTCACTGGGAGGGGGCGGA GCT3′ (SEQ ID NO: 5). The resultant PCR fragment was digested with EcoRI and Xho I and then subcloned into the bait vector. The human Bad sequence was also PCR amplified and subcloned into the prey-vector using the same primers and subcloning strategy as described above. […]
To determine if human Bad binds to any of the above Bcl-2 family members, the Bad-bait plasmid was cotransformed with every prey plasmid and the reporter plasmid p18-34 into the yeast strain EGY191. […] The reaction was stopped with 0.4 M NaOH and the plate was read at an OD 420 nm.

Assay [2] concerns the target T2, GST-Bax fusion protein (pGEX 4T1, N-terminal glutathione-S-transferase tag) (human, UniProt Q07812 1-171).
T2 construct: no residue range is printed; also called pGEX Bax
The experiment in a line: ELISA, 6HBad coated on the plate, GST fusion in solution, anti-GST detection. (In general: ELISA stands for enzyme-linked immunosorbent assay.)

The target in assay [3] is T3, GST-Bcl-xL fusion protein (pGEX 4T1, N-terminal glutathione-S-transferase tag) (human, UniProt Q07817 1-212).
T3 construct: no residue range is printed; also called pGEX-Bcl-XL
Described as above.

T3 sequence (Q07817 1-212): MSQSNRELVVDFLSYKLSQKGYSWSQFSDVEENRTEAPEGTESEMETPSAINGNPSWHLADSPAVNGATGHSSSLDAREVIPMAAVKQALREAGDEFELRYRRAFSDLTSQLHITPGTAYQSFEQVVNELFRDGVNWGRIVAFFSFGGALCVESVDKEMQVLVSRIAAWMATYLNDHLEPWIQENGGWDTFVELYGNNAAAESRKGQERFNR
T2 sequence (Q07812 1-171): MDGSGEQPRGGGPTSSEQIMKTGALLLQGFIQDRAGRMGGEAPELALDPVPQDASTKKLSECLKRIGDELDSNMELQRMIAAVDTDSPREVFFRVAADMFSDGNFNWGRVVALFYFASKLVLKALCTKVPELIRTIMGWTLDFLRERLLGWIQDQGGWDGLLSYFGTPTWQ

B1: human Bak expressed as a fusion protein with the transcriptional activator B42 (prey, vector pJG4-5) (other, UniProt Q16611 1-187, looked up, not shown: large carriers)
chain: MASGQGPGPPRQECGEPALPSASEEQVAQDTEEVFRSYVFYRHQQEQEAEGVAAPADPEMVTLPLQPSSTMGQVGRQLAIIGDDINRRYDSEFQTMLQHLQPTAENAYEYFTKIATSLFESGINWGRVVALLGFGYRLALHVYQHGLTGFLGQVTRFVVDFMLHHCIARWIAQRGGWVAALNLGNGP
notes: no residue range is printed; also called B42-Bak
Turning to B1, the binding result in assay [1] was “no binding”.

B2: 6HBad fusion protein (full length human Bad with N-terminal six residue Histidine tag, construct pET-15 6H Bad) (other, not shown: small tags and cut ends)
chain: MFQIPEFEPSEQEDSSSAERGLGPSPAGDGPSGSGKHHRQAPGLLWDASHQQEQPTSSSHHGGAGAVEIRSRHSSYPAGTEDDEGMGEEPSPFRGRSRSAPPNLWAAQRYGRELRRMSDEFVDSFKKGLPRPKSAGTATQMRQSSSWTRVFQSWWDRNLGRGSSAPSQ
notes: Made in E. coli BL21 plysS, purified on nickel, coated on ELISA plates at 4 ug/ml; also called human 6HBad
Consider B2, for which the binding result in assay [2] is recorded as “no binding”; in assay [3], “binds”.

B3: human Bad expressed as a fusion protein with the transcriptional activator B42 (prey, vector pJG4-5) (other, not shown: large carriers)
chain: B2 chain
notes: also called itself; B42-Bad
With B3, the binding result in assay [1] is given as “no binding”.
